Reference: patent US20150147278A1 (KINKI UNIVERSITY, published 2015)

Target: T1, human LAT1/CD98 complex (human, UniProt Q01650 1-507; P08195 2-529)
T1 construct: whole, on cells; Disulfide-bonded heterodimer, endogenous on human tumor cell lines (HCT116, NCI-H1944, A549, HeLa); No purified or transfected antigen was used; also called LAT1/CD98 complex protein; LAT1/4F2hc
Test: flow cytometry on human tumor cell lines, antibody prepared at 40 µg/mL; reference LGtra01-01
Experimental: Using four types of human tumor cell lines, the anti-LAT1/CD98 monoclonal antibodies were measured for their binding ability by FCM analysis. The human tumor cell lines were each adjusted with PBS to 1×10⁵ cells/well and dispensed into tubes in 50 μL volumes. To this cell suspension, 50 μL of each monoclonal antibody prepared at 40 μg/mL was added and reacted at 4° C. for 45 minutes. After washing three times by addition of 0.1% BSA-PBS (100 μL) and the subsequent centrifugation at 500 g for 3 minutes at 4° C., the cell pellets were each supplemented with 50 μL of 200-fold diluted PE-labeled anti-rat IgG (Jackson Immuno Research) and reacted under light-shielded conditions at 4° C. for 45 minutes. After washing three times by addition of 0.1% BSA-PBS (100 μL) and the subsequent centrifugation at 500 g for 3 minutes at 4° C., the cells were suspended in PBS (500 μL) and then transferred to FCM tubes. PI (100 μL) was added immediately before measurement to remove dead cells, followed by measurement with a FACS calibur (Becton Dickinson).

T1 sequence (Q01650 whole entry, chain 1 of 2): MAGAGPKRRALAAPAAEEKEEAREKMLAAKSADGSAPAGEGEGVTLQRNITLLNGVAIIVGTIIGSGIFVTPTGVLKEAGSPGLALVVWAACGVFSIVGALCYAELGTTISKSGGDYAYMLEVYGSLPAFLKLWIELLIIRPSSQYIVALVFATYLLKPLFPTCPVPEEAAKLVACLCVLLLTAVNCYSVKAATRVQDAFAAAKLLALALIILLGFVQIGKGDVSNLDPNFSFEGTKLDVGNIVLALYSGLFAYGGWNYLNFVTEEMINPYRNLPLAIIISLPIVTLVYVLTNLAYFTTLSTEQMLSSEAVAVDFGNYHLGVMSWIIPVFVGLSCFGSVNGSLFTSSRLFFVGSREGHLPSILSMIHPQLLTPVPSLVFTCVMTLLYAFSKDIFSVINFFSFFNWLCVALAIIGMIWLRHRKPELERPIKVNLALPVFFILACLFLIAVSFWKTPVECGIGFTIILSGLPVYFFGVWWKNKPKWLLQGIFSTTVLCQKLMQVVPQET
T1 sequence (P08195 103-630, chain 2 of 2): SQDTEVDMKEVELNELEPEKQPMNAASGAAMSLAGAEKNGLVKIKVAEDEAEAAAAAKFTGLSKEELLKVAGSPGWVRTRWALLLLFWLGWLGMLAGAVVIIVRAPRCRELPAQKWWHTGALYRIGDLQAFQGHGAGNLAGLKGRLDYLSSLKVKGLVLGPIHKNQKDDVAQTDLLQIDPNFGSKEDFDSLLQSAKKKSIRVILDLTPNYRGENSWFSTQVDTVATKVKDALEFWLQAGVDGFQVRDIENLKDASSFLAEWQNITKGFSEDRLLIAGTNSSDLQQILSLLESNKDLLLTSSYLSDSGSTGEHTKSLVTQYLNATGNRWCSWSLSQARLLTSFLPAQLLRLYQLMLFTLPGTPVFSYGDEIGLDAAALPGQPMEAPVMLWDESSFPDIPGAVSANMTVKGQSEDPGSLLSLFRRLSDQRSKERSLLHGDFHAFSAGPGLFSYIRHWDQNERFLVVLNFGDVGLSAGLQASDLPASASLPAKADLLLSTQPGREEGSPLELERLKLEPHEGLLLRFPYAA

B1: LG9112 monoclonal antibody (antibody, V domains shown)
VH: QMQLKESGPGLVQPSQTLSLTCAVSGFSLPTSSVSWIRQSPGKGLEWMGVIWSNGNTDYSSRFKSRLSISRDTAKSQVFLKMNSLQAEDTAMYFCARNFRNDPGVMDAWGQGASVTVSS
VL: NIVMTQSPKSMSISVGDRVTMNCKASQNVGNNVAWYQQKPGLSPKLLISYASSRHTGVPDRFTGRGSGADFTLTINGVQAEDAAFYYCQRVYKSPYTFGGGTKLELKR
notes: Rat monoclonal antibody from a hybridoma, purified from ascites with Protein G and detected with anti-rat IgG; also called anti-LAT1/CD98 monoclonal antibody
B1 was tested, and the “fold higher binding activity than LGtra01-01 monoclonal antibody” value was no less than 10 fold.

B2: LG9111 monoclonal antibody (antibody, V domains shown)
VH: QLQLKESGPGLVQPSQTLSLTCTVSGFSLPTSSVSWIRQPPGKGLEWMGVIWSNGNTDYSSAIKSRLSISRDTSKSQVFLKMNSLQTEDTARYFCARNFRNDPGVMDAWGQGASVTVSS
VL: NIVMTQSPRSMSLSGGDRVTMNCRASQNVGNNVAWYQQRPGQSPKLLISYASNRNTGVPGRFTGSGSGTDFTLTISSVQAEDAAFYYCQRIYKSPYTFGGGTKLELKR
notes: as for B1
For B2, the “fold higher binding activity than LGtra01-01 monoclonal antibody” value was no less than 10 fold.

B3: LG9114 monoclonal antibody (antibody, V domains shown)
VH: QMQLKESGPGLVQPSQTLSLTCAVSGFSLPTSSVSWIRQSPGKGLEWMGVIWSNGNTDYSSRIKSRLSISRDTSKSQVFLKMNSLQTEDTAMYFCARNFRNNPGVMDAWGQGASVTVSS
VL: NIVMTQSPKSMSISVGDRVTMNCKASQNVGNNVAWYQQKPGLSPKLLIYYASSRHTGVPDRFTGSGSGADFTLTINSVQAEDAAFYYCQRVYKSPYTFGGGTKLELKR
notes: as for B1
In the case of B3, the “fold higher binding activity than LGtra01-01 monoclonal antibody” value is reported as no less than 10 fold.

B4: LG9113 monoclonal antibody (antibody, V domains shown)
VH: QMQLKESGPGLVQPSQTLSLTCAVSGFSLPTSSVSWIRQSPGKGLEWMGVIWSNGNTDYSSRFKSRLSISRDTAKSQVFLKMNSLQTEDTAMYFCARNFRNDPGVMDAWGQGASVTVSS
VL: NIVMTQSPKSMSISVGDRVTMNCKASQTVGNNVAWYQQKPGLSPKLLISYASSRHTGVPDRFTGRGSGADFTLTINGVQAEDAAFYYCQRVYKSPYTFGGGTKLELKR
notes: as for B1
B4 was tested, and the “fold higher binding activity than LGtra01-01 monoclonal antibody” value was no less than 10 fold.
